Source: paper PMC9482650, “Quantitative fragmentomics allow affinity mapping of interactomes” (Nature Communications, 2022)

T1: PTPN13_1, Q12923
T1 sequence (Q12923 1088-1188, limits assumed, looked up): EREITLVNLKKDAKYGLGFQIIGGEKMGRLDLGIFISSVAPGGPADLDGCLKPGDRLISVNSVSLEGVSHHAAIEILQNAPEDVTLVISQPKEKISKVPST

T2: ARHGEF11, O15085
T2 sequence (O15085 42-136, limits assumed, looked up): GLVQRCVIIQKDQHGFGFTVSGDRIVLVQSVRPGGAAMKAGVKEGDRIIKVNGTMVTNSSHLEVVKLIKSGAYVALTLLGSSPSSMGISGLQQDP

T3: TX1BP3, O14907
T3 sequence (O14907 10-122, limits assumed, looked up): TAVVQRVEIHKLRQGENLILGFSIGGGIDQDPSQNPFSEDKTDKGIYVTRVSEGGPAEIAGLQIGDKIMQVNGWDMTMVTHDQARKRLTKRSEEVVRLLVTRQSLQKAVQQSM

T4: SHANK1, Q9Y566
T4 sequence (Q9Y566 658-767, limits assumed, looked up): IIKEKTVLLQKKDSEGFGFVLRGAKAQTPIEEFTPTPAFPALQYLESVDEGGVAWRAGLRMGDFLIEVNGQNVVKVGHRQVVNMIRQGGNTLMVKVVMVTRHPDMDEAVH

T5: LIN7A, O14910
T5 sequence (O14910 103-200, limits assumed, looked up): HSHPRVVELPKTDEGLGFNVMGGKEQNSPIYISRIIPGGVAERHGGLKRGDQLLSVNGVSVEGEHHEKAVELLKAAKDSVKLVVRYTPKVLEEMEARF

T6: MPDZ_12, O75970
T6 sequence (O75970 1857-1958, limits assumed, looked up): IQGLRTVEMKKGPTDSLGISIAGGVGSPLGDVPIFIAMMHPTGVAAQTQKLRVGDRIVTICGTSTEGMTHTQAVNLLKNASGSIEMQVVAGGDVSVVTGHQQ

T7: PCLO, Q9Y6V0
T7 sequence (Q9Y6V0 4491-4600, limits assumed, looked up): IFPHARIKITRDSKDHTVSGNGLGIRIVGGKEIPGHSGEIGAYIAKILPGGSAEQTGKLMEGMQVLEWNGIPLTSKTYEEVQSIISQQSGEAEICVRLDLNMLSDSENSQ

T8: FRMPD1, Q5SYB0
T8 sequence (Q5SYB0 52-145, limits assumed, looked up): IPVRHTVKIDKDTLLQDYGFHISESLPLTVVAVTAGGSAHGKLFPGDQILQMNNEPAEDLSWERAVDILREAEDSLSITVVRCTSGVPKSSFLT

T9: DLG3_2, Q92796
T9 sequence (Q92796 221-321, limits assumed, looked up): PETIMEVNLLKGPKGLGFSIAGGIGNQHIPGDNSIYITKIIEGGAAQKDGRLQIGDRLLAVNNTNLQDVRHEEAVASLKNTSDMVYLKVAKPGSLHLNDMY


What follows are binders tested against T1, PTPN13_1, Q12923 (assay: holdup assay). Details: plain residues with an end cap or a label only (N-terminal biotin on a linker: ado-ado).
Parameters: key: below the threshold = too weak to quantify, mostly under pKd 3.1 to 4

Binder	pKd
SAKVRTVTSV [RASL11B, Q9BPW5]	below the threshold
PDGQCTVTEV [RNF146, Q9NTX7]	below the threshold

The binders below were run against LNX1_1, Q8TBB1 (assay: holdup assay). Details: plain residues with an end cap or a label only (N-terminal biotin on a linker: ado-ado).
Chain of LNX1_1, Q8TBB1 (Q8TBB1 261-371): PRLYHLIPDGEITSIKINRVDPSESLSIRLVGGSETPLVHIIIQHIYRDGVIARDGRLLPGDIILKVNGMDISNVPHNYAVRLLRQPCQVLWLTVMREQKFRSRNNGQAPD
Parameters: key: below the threshold = too weak to quantify, mostly under pKd 3.1 to 4

Binder	pKd
SAKVRTVTSV [RASL11B, Q9BPW5]	4.04
PDGQCTVTEV [RNF146, Q9NTX7]	4.12

What follows are binders tested against T2, ARHGEF11, O15085 (assay: holdup assay). Details: plain residues with an end cap or a label only (N-terminal biotin on a linker: ado-ado).
Parameters: key: below the threshold = too weak to quantify, mostly under pKd 3.1 to 4

Binder	pKd
SAKVRTVTSV [RASL11B, Q9BPW5]	4.45
PDGQCTVTEV [RNF146, Q9NTX7]	5.09

These binders were tested against Inadl_9, Q8NI35 (assay: holdup assay). Details: plain residues with an end cap or a label only (N-terminal biotin on a linker: ado-ado).
Chain of Inadl_9, Q8NI35 (Q8NI35 1530-1615): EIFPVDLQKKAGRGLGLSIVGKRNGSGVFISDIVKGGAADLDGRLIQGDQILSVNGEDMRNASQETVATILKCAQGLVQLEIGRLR
Parameters: key: below the threshold = too weak to quantify, mostly under pKd 3.1 to 4

Binder	pKd
SAKVRTVTSV [RASL11B, Q9BPW5]	below the threshold
PDGQCTVTEV [RNF146, Q9NTX7]	3.72

What follows are binders tested against DLG2_3, Q15700 (assay: holdup assay). Details: plain residues with an end cap or a label only (N-terminal biotin on a linker: ado-ado).
Parameters: key: below the threshold = too weak to quantify, mostly under pKd 3.1 to 4

Binder	pKd
SAKVRTVTSV [RASL11B, Q9BPW5]	5
PDGQCTVTEV [RNF146, Q9NTX7]	3.68

These binders were tested against T3, TX1BP3, O14907 (assay: holdup assay). Details: plain residues with an end cap or a label only (N-terminal biotin on a linker: ado-ado).
Parameters: key: below the threshold = too weak to quantify, mostly under pKd 3.1 to 4

Binder	pKd
SAKVRTVTSV [RASL11B, Q9BPW5]	4.53
PDGQCTVTEV [RNF146, Q9NTX7]	4.78

The binders below were run against Inadl_1, Q8NI35 (assay: holdup assay). Details: plain residues with an end cap or a label only (N-terminal biotin on a linker: ado-ado).
Chain of Inadl_1, Q8NI35 (Q8NI35 113-229): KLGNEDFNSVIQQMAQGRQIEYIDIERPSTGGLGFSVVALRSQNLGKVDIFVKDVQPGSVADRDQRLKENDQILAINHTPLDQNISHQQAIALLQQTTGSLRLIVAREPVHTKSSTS
Parameters: key: below the threshold = too weak to quantify, mostly under pKd 3.1 to 4

Binder	pKd
SAKVRTVTSV [RASL11B, Q9BPW5]	below the threshold
PDGQCTVTEV [RNF146, Q9NTX7]	below the threshold

The binders below were run against Inadl_5, Q8NI35 (assay: holdup assay). Details: plain residues with an end cap or a label only (N-terminal biotin on a linker: ado-ado).
Chain of Inadl_5, Q8NI35 (Q8NI35 673-780): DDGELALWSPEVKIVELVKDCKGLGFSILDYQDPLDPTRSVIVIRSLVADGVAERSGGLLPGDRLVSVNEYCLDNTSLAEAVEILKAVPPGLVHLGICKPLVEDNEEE
Parameters: key: below the threshold = too weak to quantify, mostly under pKd 3.1 to 4

Binder	pKd
SAKVRTVTSV [RASL11B, Q9BPW5]	below the threshold
PDGQCTVTEV [RNF146, Q9NTX7]	below the threshold

The binders below were run against MAGI2_3, Q86UL8 (assay: holdup assay). Details: plain residues with an end cap or a label only (N-terminal biotin on a linker: ado-ado).
Chain of MAGI2_3, Q86UL8 (Q86UL8 600-682): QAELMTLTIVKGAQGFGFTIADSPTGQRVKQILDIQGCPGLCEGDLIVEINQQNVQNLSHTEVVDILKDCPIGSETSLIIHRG
Parameters: key: below the threshold = too weak to quantify, mostly under pKd 3.1 to 4

Binder	pKd
SAKVRTVTSV [RASL11B, Q9BPW5]	4.25
PDGQCTVTEV [RNF146, Q9NTX7]	3.94

Each binder was assayed against GORASP2, Q9H8Y8 (assay: holdup assay). Details: plain residues with an end cap or a label only (N-terminal biotin on a linker: ado-ado).
Parameters: key: below the threshold = too weak to quantify, mostly under pKd 3.1 to 4

Binder	pKd
SAKVRTVTSV [RASL11B, Q9BPW5]	4.56
PDGQCTVTEV [RNF146, Q9NTX7]	4.17

What follows are binders tested against T4, SHANK1, Q9Y566 (assay: holdup assay). Details: plain residues with an end cap or a label only (N-terminal biotin on a linker: ado-ado).
Parameters: key: below the threshold = too weak to quantify, mostly under pKd 3.1 to 4

Binder	pKd
SAKVRTVTSV [RASL11B, Q9BPW5]	below the threshold
PDGQCTVTEV [RNF146, Q9NTX7]	below the threshold

The binders below were run against T5, LIN7A, O14910 (assay: holdup assay). Details: plain residues with an end cap or a label only (N-terminal biotin on a linker: ado-ado).
Parameters: key: below the threshold = too weak to quantify, mostly under pKd 3.1 to 4

Binder	pKd
SAKVRTVTSV [RASL11B, Q9BPW5]	below the threshold
PDGQCTVTEV [RNF146, Q9NTX7]	below the threshold

The binders below were run against PDZRN4_1, Q6ZMN7 (assay: holdup assay). Details: plain residues with an end cap or a label only (N-terminal biotin on a linker: ado-ado).
Chain of PDZRN4_1, Q6ZMN7 (Q6ZMN7 213-318): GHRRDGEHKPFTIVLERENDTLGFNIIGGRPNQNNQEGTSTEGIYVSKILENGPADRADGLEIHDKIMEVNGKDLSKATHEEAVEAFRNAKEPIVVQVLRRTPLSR
Parameters: key: below the threshold = too weak to quantify, mostly under pKd 3.1 to 4

Binder	pKd
SAKVRTVTSV [RASL11B, Q9BPW5]	below the threshold
PDGQCTVTEV [RNF146, Q9NTX7]	below the threshold

Each binder was assayed against T6, MPDZ_12, O75970 (assay: holdup assay). Details: plain residues with an end cap or a label only (N-terminal biotin on a linker: ado-ado).
Parameters: key: below the threshold = too weak to quantify, mostly under pKd 3.1 to 4

Binder	pKd
SAKVRTVTSV [RASL11B, Q9BPW5]	below the threshold
PDGQCTVTEV [RNF146, Q9NTX7]	below the threshold

Each binder was assayed against Inadl_10, Q8NI35 (assay: holdup assay). Details: plain residues with an end cap or a label only (N-terminal biotin on a linker: ado-ado).
Chain of Inadl_10, Q8NI35 (Q8NI35 1673-1763): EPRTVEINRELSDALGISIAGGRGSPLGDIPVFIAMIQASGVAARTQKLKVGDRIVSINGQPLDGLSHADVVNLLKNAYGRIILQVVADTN
Parameters: key: below the threshold = too weak to quantify, mostly under pKd 3.1 to 4

Binder	pKd
SAKVRTVTSV [RASL11B, Q9BPW5]	below the threshold
PDGQCTVTEV [RNF146, Q9NTX7]	3.58

These binders were tested against GRASP, Q7Z6J2 (assay: holdup assay). Details: plain residues with an end cap or a label only (N-terminal biotin on a linker: ado-ado).
Chain of GRASP, Q7Z6J2 (Q7Z6J2 96-193): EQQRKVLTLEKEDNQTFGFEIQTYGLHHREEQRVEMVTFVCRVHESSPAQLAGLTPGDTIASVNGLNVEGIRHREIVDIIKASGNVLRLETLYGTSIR
Parameters: key: below the threshold = too weak to quantify, mostly under pKd 3.1 to 4

Binder	pKd
SAKVRTVTSV [RASL11B, Q9BPW5]	4.54
PDGQCTVTEV [RNF146, Q9NTX7]	4.7

These binders were tested against T7, PCLO, Q9Y6V0 (assay: holdup assay). Details: plain residues with an end cap or a label only (N-terminal biotin on a linker: ado-ado).
Parameters: key: below the threshold = too weak to quantify, mostly under pKd 3.1 to 4

Binder	pKd
SAKVRTVTSV [RASL11B, Q9BPW5]	below the threshold
PDGQCTVTEV [RNF146, Q9NTX7]	below the threshold

The binders below were run against MAGI2_6, Q86UL8 (assay: holdup assay). Details: plain residues with an end cap or a label only (N-terminal biotin on a linker: ado-ado).
Chain of MAGI2_6, Q86UL8 (Q86UL8 1141-1229): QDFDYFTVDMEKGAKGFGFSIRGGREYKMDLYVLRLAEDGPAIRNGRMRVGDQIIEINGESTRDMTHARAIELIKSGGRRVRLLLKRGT
Parameters: key: below the threshold = too weak to quantify, mostly under pKd 3.1 to 4

Binder	pKd
SAKVRTVTSV [RASL11B, Q9BPW5]	3.85
PDGQCTVTEV [RNF146, Q9NTX7]	4.71

What follows are binders tested against MAST2, Q6P0Q8 (assay: holdup assay). Details: plain residues with an end cap or a label only (N-terminal biotin on a linker: ado-ado).
Chain of MAST2, Q6P0Q8 (Q6P0Q8 1099-1202): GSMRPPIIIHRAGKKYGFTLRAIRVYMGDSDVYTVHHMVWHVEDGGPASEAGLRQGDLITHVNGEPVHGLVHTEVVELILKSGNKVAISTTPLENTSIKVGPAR
Parameters: key: below the threshold = too weak to quantify, mostly under pKd 3.1 to 4

Binder	pKd
SAKVRTVTSV [RASL11B, Q9BPW5]	5.3
PDGQCTVTEV [RNF146, Q9NTX7]	5.28

The binders below were run against GIPC2, Q8TF65 (assay: holdup assay). Details: plain residues with an end cap or a label only (N-terminal biotin on a linker: ado-ado).
Chain of GIPC2, Q8TF65 (Q8TF65 112-203): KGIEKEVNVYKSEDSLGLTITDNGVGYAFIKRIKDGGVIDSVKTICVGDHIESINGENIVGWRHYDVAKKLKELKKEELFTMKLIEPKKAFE
Parameters: key: below the threshold = too weak to quantify, mostly under pKd 3.1 to 4

Binder	pKd
SAKVRTVTSV [RASL11B, Q9BPW5]	below the threshold
PDGQCTVTEV [RNF146, Q9NTX7]	3.78

Each binder was assayed against GRID2IP_1, A4D2P6 (assay: holdup assay). Details: plain residues with an end cap or a label only (N-terminal biotin on a linker: ado-ado).
Chain of GRID2IP_1, A4D2P6 (A4D2P6 1-87): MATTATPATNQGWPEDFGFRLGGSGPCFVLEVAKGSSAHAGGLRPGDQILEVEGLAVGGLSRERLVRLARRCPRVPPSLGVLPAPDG
Parameters: key: below the threshold = too weak to quantify, mostly under pKd 3.1 to 4

Binder	pKd
SAKVRTVTSV [RASL11B, Q9BPW5]	below the threshold
PDGQCTVTEV [RNF146, Q9NTX7]	below the threshold

The binders below were run against DLG1_1, Q12959 (assay: holdup assay). Details: plain residues with an end cap or a label only (N-terminal biotin on a linker: ado-ado).
Parameters: key: below the threshold = too weak to quantify, mostly under pKd 3.1 to 4

Binder	pKd
SAKVRTVTSV [RASL11B, Q9BPW5]	4.42
PDGQCTVTEV [RNF146, Q9NTX7]	4.53

The binders below were run against T8, FRMPD1, Q5SYB0 (assay: holdup assay). Details: plain residues with an end cap or a label only (N-terminal biotin on a linker: ado-ado).
Parameters: key: below the threshold = too weak to quantify, mostly under pKd 3.1 to 4

Binder	pKd
SAKVRTVTSV [RASL11B, Q9BPW5]	below the threshold
PDGQCTVTEV [RNF146, Q9NTX7]	below the threshold

The binders below were run against PTPN3, P26045 (assay: holdup assay). Details: plain residues with an end cap or a label only (N-terminal biotin on a linker: ado-ado).
Chain of PTPN3, P26045 (P26045 505-587): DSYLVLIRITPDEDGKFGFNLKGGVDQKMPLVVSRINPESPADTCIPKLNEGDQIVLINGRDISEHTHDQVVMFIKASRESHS
Parameters: key: below the threshold = too weak to quantify, mostly under pKd 3.1 to 4

Binder	pKd
SAKVRTVTSV [RASL11B, Q9BPW5]	4.6
PDGQCTVTEV [RNF146, Q9NTX7]	4.99

Each binder was assayed against DLG5_1, Q8TDM6 (assay: holdup assay). Details: plain residues with an end cap or a label only (N-terminal biotin on a linker: ado-ado).
Chain of DLG5_1, Q8TDM6 (Q8TDM6 617-713): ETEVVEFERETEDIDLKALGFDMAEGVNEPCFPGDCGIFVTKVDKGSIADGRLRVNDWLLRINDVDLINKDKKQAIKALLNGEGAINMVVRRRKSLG
Parameters: key: below the threshold = too weak to quantify, mostly under pKd 3.1 to 4

Binder	pKd
SAKVRTVTSV [RASL11B, Q9BPW5]	below the threshold
PDGQCTVTEV [RNF146, Q9NTX7]	below the threshold

The binders below were run against MAGI2_2, Q86UL8 (assay: holdup assay). Details: plain residues with an end cap or a label only (N-terminal biotin on a linker: ado-ado).
Chain of MAGI2_2, Q86UL8 (Q86UL8 410-522): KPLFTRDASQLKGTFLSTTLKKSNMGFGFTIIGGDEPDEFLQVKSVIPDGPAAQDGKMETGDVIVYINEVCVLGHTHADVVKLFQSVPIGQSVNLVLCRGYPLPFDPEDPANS
Parameters: key: below the threshold = too weak to quantify, mostly under pKd 3.1 to 4

Binder	pKd
SAKVRTVTSV [RASL11B, Q9BPW5]	5.92
PDGQCTVTEV [RNF146, Q9NTX7]	3.86

The binders below were run against NHERF2_2, Q15599 (assay: holdup assay). Details: plain residues with an end cap or a label only (N-terminal biotin on a linker: ado-ado).
Chain of NHERF2_2, Q15599 (Q15599 142-238): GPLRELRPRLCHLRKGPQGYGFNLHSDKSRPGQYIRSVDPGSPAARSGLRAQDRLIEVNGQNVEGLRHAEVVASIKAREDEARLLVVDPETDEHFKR
Parameters: key: below the threshold = too weak to quantify, mostly under pKd 3.1 to 4

Binder	pKd
SAKVRTVTSV [RASL11B, Q9BPW5]	below the threshold
PDGQCTVTEV [RNF146, Q9NTX7]	3.89

What follows are binders tested against NHERF4_4, Q86UT5 (assay: holdup assay). Details: plain residues with an end cap or a label only (N-terminal biotin on a linker: ado-ado).
Chain of NHERF4_4, Q86UT5 (Q86UT5 464-550): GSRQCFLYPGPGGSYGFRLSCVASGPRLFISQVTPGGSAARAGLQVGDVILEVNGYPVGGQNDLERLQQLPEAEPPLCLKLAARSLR
Parameters: key: below the threshold = too weak to quantify, mostly under pKd 3.1 to 4

Binder	pKd
SAKVRTVTSV [RASL11B, Q9BPW5]	3.91
PDGQCTVTEV [RNF146, Q9NTX7]	4.02

What follows are binders tested against T9, DLG3_2, Q92796 (assay: holdup assay). Details: plain residues with an end cap or a label only (N-terminal biotin on a linker: ado-ado).
Parameters: key: below the threshold = too weak to quantify, mostly under pKd 3.1 to 4

Binder	pKd
SAKVRTVTSV [RASL11B, Q9BPW5]	4.78
PDGQCTVTEV [RNF146, Q9NTX7]	4.98
